# Test results taken from paper PMC3528738 (PLoS ONE, 2012).
# Where no end group is shown, it is not given here.
# Target: T1, MPERp (HIV-1 (HXBc2 isolate), C-terminal carboxamide)
# T1 construct: also called MPER peptide
# Assay: cross-linking; peptides (10 µg) in solution incubated with 20 µM BS3 for 1 h at 37°C, TCA precipitation, Tricine SDS-PAGE; detection by Western blot with MAb2F5 or by NBD fluorescence in the gel
# Conditions: both partners purified
# T1 sequence (P03375 656-683): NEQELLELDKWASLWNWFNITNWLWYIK
binder,measurement,value
"AVGIGALFLGFLGAAGSTMGARSKKK-NH2 (HIV-1 gp160 (gp41 amino-terminal fusion peptide), HXBc2 isolate, residues 512-534; three lysines added at the C-terminus, not of gp160 (printed as 512-534-KKK); C-terminal KKK is added to the natural stretch; also called FP peptide; fusion peptide; source: synthetic peptide (solid-phase synthesis, Fmoc chemistry; purified by HPLC)) [FPp]",binding result,binds
